PMC9371724 (2022)

T1: HA69 peptide on HLA DQB1*06:02/DQA1*01:02 (DQ0602) (human)
T1 peptide: AMERNAGSGIIISDT

T2: hemagglutinin (HA) of pandemic 2009 H1N1 (pHA, HA69) peptide on HLA-DQA1*01:02 / HLA-DQB1*06:02 (human)
T2 peptide: AMERNAGSGIIISDT

T3: hemagglutinin (HA) of pandemic 2009 H1N1 (pHA, HA69) peptide on HLA-DQA1*01:02 / HLA-DQB1*06:02 (human)
T3 peptide: AMERNAGSGIIISDT

B1: TCR CAASRGTSYDKVIF / CSVRGLYNEQFF (TCR)
alpha TRAV13-1 TRAJ50 CDR3: CAASRGTSYDKVIF
beta TRBV29-1 TRBJ2-1 CDR3: CSVRGLYNEQFF
B2: TCR CATDAELGNKLVF / CASSQDRGRGTDTQYF (TCR)
alpha TRAV17 TRAJ47 CDR3: CATDAELGNKLVF
beta TRBV4-2 TRBJ2-3 CDR3: CASSQDRGRGTDTQYF
B3: TCR CAVSEKNTGFQKLVF / CASRKGLGDTDTQYF (TCR)
alpha TRAV8-6 TRAJ8 CDR3: CAVSEKNTGFQKLVF
beta TRBV6-1 TRBJ2-3 CDR3: CASRKGLGDTDTQYF
B4: TCR43 (TCR)
alpha TRAV13-1 TRAJ43 CDR3: CAASDNDMRF
beta TRBV4-2 TRBJ1-2 CDR3: CASSQETQGRNYGYTF
B5: TCR CAASRGTSYDKVIF / CSTQRLYNEQFF (TCR)
alpha TRAV13-1 TRAJ50 CDR3: CAASRGTSYDKVIF
beta TRBV29-1 TRBJ2-1 CDR3: CSTQRLYNEQFF
B6: TCR CATGHTGANSKLTF / CASSLQGTPNGNQPQHF (TCR)
alpha TRAV17 TRAJ56 CDR3: CATGHTGANSKLTF
beta TRBV19 TRBJ1-5 CDR3: CASSLQGTPNGNQPQHF
B7: TCR CIVRVGTNQGGKLIF / CASSQDRAGTNTEAFF (TCR)
alpha TRAV26-1 TRAJ23 CDR3: CIVRVGTNQGGKLIF
beta TRBV4-2 TRBJ1-1 CDR3: CASSQDRAGTNTEAFF
B8: TCR CVVNGEAPGNQFYF / CASSVASSSYNEQFF (TCR)
alpha TRAV12-1 TRAJ49 CDR3: CVVNGEAPGNQFYF
beta TRBV4-2 TRBJ2-1 CDR3: CASSVASSSYNEQFF
B9: TCR CATDTENNARLMF / CSAGGAGPKMQYF (TCR)
alpha TRAV17 TRAJ31 CDR3: CATDTENNARLMF
beta TRBV20-1 TRBJ2-7 CDR3: CSAGGAGPKMQYF
B10: TCR CALSPDSWGKLQF / CASSTRAPTRTGEKLFF (TCR)
alpha TRAV6 TRAJ24 CDR3: CALSPDSWGKLQF
beta TRBV7-9 TRBJ1-4 CDR3: CASSTRAPTRTGEKLFF
B11: TCR CATGSYNTDKLIF / CASSPDGTGVGNTIYF (TCR)
alpha TRAV17 TRAJ34 CDR3: CATGSYNTDKLIF
beta TRBV4-2 TRBJ1-3 CDR3: CASSPDGTGVGNTIYF
B12: TCR CAVSGGNAGNMLTF / CATQKGDRGQSWGYTF (TCR)
alpha TRAV2 TRAJ39 CDR3: CAVSGGNAGNMLTF
beta TRBV6-1 TRBJ1-2 CDR3: CATQKGDRGQSWGYTF
B13: TCR CAVSDNPRVQGAQKLVF / CSAAGTGGAGTEAFF (TCR)
alpha TRAV8-6 TRAJ54 CDR3: CAVSDNPRVQGAQKLVF
beta TRBV29-1 TRBJ1-1 CDR3: CSAAGTGGAGTEAFF
B14: TCR CVVSEPGTYKYIF / CASSPDGTGVGNTIYF (TCR)
alpha TRAV8-2 TRAJ40 CDR3: CVVSEPGTYKYIF
beta TRBV4-2 TRBJ1-3 CDR3: CASSPDGTGVGNTIYF
B15: TCR CIVRVVSNQGGKLIF / CASSPQGFDYGYTF (TCR)
alpha TRAV26-1 TRAJ23 CDR3: CIVRVVSNQGGKLIF
beta TRBV19 TRBJ1-2 CDR3: CASSPQGFDYGYTF
B16: TCR CAMRGQDSGYSTLTF / CASSIVRGLYSNQPQHF (TCR)
alpha TRAV14/DV4 TRAJ11 CDR3: CAMRGQDSGYSTLTF
beta TRBV19 TRBJ1-5 CDR3: CASSIVRGLYSNQPQHF
B17: TCR CLVGDMEYGNKLVF / CASSQAPPSGNEQFF (TCR)
alpha TRAV4 TRAJ47 CDR3: CLVGDMEYGNKLVF
beta TRBV4-2 TRBJ2-1 CDR3: CASSQAPPSGNEQFF
B18: TCR CIVRANTGNQFYF / CASSPDGTGVGNTIYF (TCR)
alpha TRAV26-1 TRAJ49 CDR3: CIVRANTGNQFYF
beta TRBV4-2 TRBJ1-3 CDR3: CASSPDGTGVGNTIYF
B19: TCR CIVRVLTNQGGKLIF / CASSFQGLSTDTQYF (TCR)
alpha TRAV26-1 TRAJ23 CDR3: CIVRVLTNQGGKLIF
beta TRBV12-3 TRBJ2-3 CDR3: CASSFQGLSTDTQYF
B20: TCR CIVRVATNQGGKLIF / CASSPQGGLAEQYF (TCR)
alpha TRAV26-1 TRAJ23 CDR3: CIVRVATNQGGKLIF
beta TRBV19 TRBJ2-7 CDR3: CASSPQGGLAEQYF
B21: TCR CAARQMDSSYKLIF / CASSVASSSYNEQFF (TCR)
alpha TRAV23/DV6 TRAJ12 CDR3: CAARQMDSSYKLIF
beta TRBV4-2 TRBJ2-1 CDR3: CASSVASSSYNEQFF
B22: TCR CAVSPSDSWGKLQF / CASSYPGLSQETQYF (TCR)
alpha TRAV8-2 TRAJ24 CDR3: CAVSPSDSWGKLQF
beta TRBV5-5 TRBJ2-5 CDR3: CASSYPGLSQETQYF
B23: TCR CALSGDNAGNNRKLIW / CASNSRLAGGHVAYNEQFF (TCR)
alpha TRAV19 TRAJ38 CDR3: CALSGDNAGNNRKLIW
beta TRBV12-3 TRBJ2-1 CDR3: CASNSRLAGGHVAYNEQFF
B24: TCR CAVSDGGTSYGKLTF / CASSQGNTGHSPLHF (TCR)
alpha TRAV8-6 TRAJ52 CDR3: CAVSDGGTSYGKLTF
beta TRBV4-3 TRBJ1-6 CDR3: CASSQGNTGHSPLHF
B25: TCR CIVRVATNQAGTALIF / CASSTQGAFAEAFF (TCR)
alpha TRAV26-1 TRAJ15 CDR3: CIVRVATNQAGTALIF
beta TRBV19 TRBJ1-1 CDR3: CASSTQGAFAEAFF
B26: TCR CAVSPGNNQGGKLIF / CASSTQGAGEAFF (TCR)
alpha TRAV8-2 TRAJ23 CDR3: CAVSPGNNQGGKLIF
beta TRBV19 TRBJ1-1 CDR3: CASSTQGAGEAFF
B27: TCR CIVRVGTNQAGTALIF / CASREQGLDYGYTF (TCR)
alpha TRAV26-1 TRAJ15 CDR3: CIVRVGTNQAGTALIF
beta TRBV19 TRBJ1-2 CDR3: CASREQGLDYGYTF

Target: T1, HA69 peptide on HLA …
Assay: activation reporter or marker
B1: recognises. B2: recognises. B3: recognises. B4: recognises. B5: recognises. B6: recognises.

Target: T2, hemagglutinin (HA) of pandemic 2009 …
Assay: activation reporter or marker
B7: no recognition. B8: no recognition. B9: no recognition. B10: no recognition. B11: no recognition. B12: no recognition. B13: no recognition. B14: no recognition. B15: no recognition. B16: no recognition. B17: no recognition. B18: no recognition. B19: no recognition. B20: no recognition. B21: no recognition. B22: no recognition. B23: no recognition. B24: no recognition. B25: no recognition. B26: no recognition. B27: no recognition.

Target: T3, hemagglutinin (HA) of pandemic 2009 …
Assay: activation reporter or marker
B4: recognises.
